Experimental data taken from patent US20160237157A1 (published 2016).

Assays:
[1] = molecular target: human FGFR4 expressed at the cell surface (human, UniProt P22455 22-802); experiment: cell-based or functional assay
[2] = molecular target: T1, human FGFR4 (soluble, Part B: SPR and FGFR4 ELISA) (human, UniProt P22455 22-369); experiment: surface plasmon resonance, compared with chLD1
T1 construct: Injected over immobilized IgG in SPR (0.48-1000 nM) and immobilized in the FGFR4 ELISA
T1 sequence: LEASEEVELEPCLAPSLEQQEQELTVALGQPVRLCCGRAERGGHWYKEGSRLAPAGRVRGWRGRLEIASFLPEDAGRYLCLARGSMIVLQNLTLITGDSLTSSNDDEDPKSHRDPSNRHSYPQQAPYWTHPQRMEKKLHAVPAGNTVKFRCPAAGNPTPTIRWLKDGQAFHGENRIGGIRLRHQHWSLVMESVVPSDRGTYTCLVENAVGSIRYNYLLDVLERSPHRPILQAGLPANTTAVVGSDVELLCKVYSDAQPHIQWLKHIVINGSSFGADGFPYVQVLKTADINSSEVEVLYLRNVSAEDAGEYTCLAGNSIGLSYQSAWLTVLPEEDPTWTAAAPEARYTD

B1: chimeric LD1 (chLD1) (antibody, V domains shown)
VH: EVQLQQPGAVLVRPGTSVKLSCKASGYTFTNHWMNWVKQRPGQGLEWIGMIHPSDSETTLDQKFKDKATLTVDKSSSTAYMQLNRPTSEDSAVYYCTRGDISLFDYWGQGTTVTVSS
VL: DIQMTQTTSSLSASLGDRVTITCRTSQDISNFLNWYQQKPDGTFKILISYTSRLHSGVPSRFSGSGSGTDYSLTISTLEQEDFATYFCQQGNALPYTFGGGTKLEIE
- CYP7α1 expression in HEP3B cells without added FGF19, fold increase [1]: 2 fold
- CYP7α1 expression in HUH7 cells in the absence of FGF19, fold increase [1]: 3.5 fold
- CYP7α1 expression in HUH7 cells in the presence of FGF19, fold increase [1]: 2.9 fold

B2: hLD1.vA (antibody, V domains shown)
VH: EVQLVESGGGLVQPGGSLRLSCAASGYTFTNHWMNWVRQAPGKGLEWVGMIHPSDSETTLDQKFKDRFTISADTSKNTAYLQMNSLRAEDTAVYYCTRGDISLFDYWGQGTLVTVSS
VL: DIQMTQSPSSLSASVGDRVTITCRTSQDISNFLNWYQQKPGKAPKLLIYYTSRLHSGVPSRFSGSGSGTDFTLTISSLQPEDFATYYCQQGNALPYTFGQGTKVEIKR
- fold decrease of affinity against chLD1 [2]: ~5 fold
